Laboratory results: patent publication US20080015165A1, “NOVEL POLYPEPTIDE” (KYOWA HAKKO KOGYO CO., LTD., priority 1998, published 2008)

Key:
Namalwa cells = assay: Indirect fluorescent antibody staining (FACS) of transformed Namalwa cells; format: cell-based, human; settings: FIG. 1
Protocol: The plasmids were dissolved in 10 μl of TE buffer. Then each of the plasmids was introduced into Namalwa cells by electroporation method [Cytotechnology, 3, 133 (1990)].
After introducing […] of the plasmids prepared as described above or 4 μg of pAMo (control plasmid) per 1.0×10^6 to 1.6×10^6 cells (200 μl) by electroporation method, the cells were suspended in 8 ml of RPMI1640 media and then cultured in a CO2 incubator for 24 hours at 37° C.
After culturing, the medium was supplemented with G418 (manufactured by GIBCO BRL) to 0.5 mg/ml followed by culturing for another 10 to 14 days, thereby obtaining transformed cells.
Indirect fluorescent antibody staining using the anti-Lewis x sugar chain antibody (PM-81) was performed as follows.
About 1×10^6 transformed cells were added to a microtube (1.5 ml: manufactured by Eppendolf) and then the cells were collected by centrifugation (550×g, 7 minutes).
The cells were washed with 0.9 ml of A-PBS, suspended by adding 20 μl of the anti-Lewis x sugar chain antibody (PM-81) that had been diluted with A-PBS to about 10 μg/ml, and then allowed to react for 1 hour at 4° C. […]
After the reaction, the cells were washed once with 0.9 ml of A-PBS, and then suspended in 0.6 ml of A-PBS, followed by the analysis using a fluorescence activated cell sorter. […]

Namalwa KJM-1 cells = assay: Indirect fluorescent antibody staining (FACS) of transformed Namalwa KJM-1 cells; format: cell-based, human; settings: antibodies CSLEX-1, KM93; FIG. 2 (also Namalwa cells, FIG. 1)
From the text: Similarly, Namalwa KJM-1 cells, into which a control plasmid (pAMo), a mouse Fuc-TIX expression plasmid (pAMo-mFT9), a human Fuc-TIV expression plasmid (pAMo-FT4), or a human Fuc-TVII expression plasmid (pAMo-FT7) had been introduced, were obtained. The cells were subjected to indirect fluorescent antibody staining using the anti-Lewis x sugar chain antibody (KM380) and an anti-sialyl Lewis x sugar chain antibodies (CSLEX-1 or KM93) (see FIG. 2).

B1: Fuc-TIX: human Fuc-TIX, 359 amino acids (SEQ ID NO:2), α1,3-fucosyltransferase expressed from pAMo-FT9 in Namalwa cells (protein)
chain: MTSTSKGILRPFLIVCIILGCFMACLLIYIKPTNSWIFSPMESASSVLKMKNFFSTKTDYFNETTILVWVWPFGQTFDLTSCQAMFNIQGCHLTTDRSLYNKSHAVLIHHRDISWDLTNLPQQARPPFQKWIWMNLESPTHTPQKSGIEHLFNLTLTYRRDSDIQVPYGFLTVSTNPFVFEVPSKEKLVCWVVSNWNPEHARVKYYNELSKSIEIHTYGQAFGEYVNDKNLIPTISACKFYLSFENSIHKDYITEKLYNAFLAGSVPVVLGPSRENYENYIPADSFIHVEDYNSPSELAKYLKEVDKNNKLYLSYFNWRKDFTVNLPRFWESHACLACDHVKRHQEYKSVGNLEKWFWN
modifications: human
synthesis of the Lewis x sugar chain in transformed cells (Namalwa cells): can synthesize | synthesis of the Lewis y sugar chain in transformed cells (Namalwa cells): can synthesize | synthesis of the sialyl Lewis x sugar chain in transformed cells (Namalwa KJM-1 cells): cannot synthesize
